According to patent US20190077860A1 (EISAI R AND D MANAGEMENT, published 2019):

T1: human EphA1 extracellular region-SEAP-His protein (human, UniProt P21709 26-547)
T1 construct: extracellular domain; also called hEphA1-SEAP-His
T1 sequence (looked up): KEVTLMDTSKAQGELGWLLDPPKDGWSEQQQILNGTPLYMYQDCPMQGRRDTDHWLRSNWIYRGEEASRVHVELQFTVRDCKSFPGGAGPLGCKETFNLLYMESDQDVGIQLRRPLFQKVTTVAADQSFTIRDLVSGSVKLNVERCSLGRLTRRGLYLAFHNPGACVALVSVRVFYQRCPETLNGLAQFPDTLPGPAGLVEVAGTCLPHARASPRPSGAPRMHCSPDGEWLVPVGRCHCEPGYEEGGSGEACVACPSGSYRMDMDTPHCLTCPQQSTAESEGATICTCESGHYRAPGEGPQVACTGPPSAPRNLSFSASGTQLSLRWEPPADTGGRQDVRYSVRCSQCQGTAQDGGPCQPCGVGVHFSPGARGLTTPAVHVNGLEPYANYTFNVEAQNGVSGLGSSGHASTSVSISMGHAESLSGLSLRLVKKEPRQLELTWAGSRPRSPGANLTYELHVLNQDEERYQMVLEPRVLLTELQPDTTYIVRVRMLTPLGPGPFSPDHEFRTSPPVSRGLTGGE

T2: human EphA3 extracellular region-SEAP-His protein (human, UniProt P29320 21-541)
T2 construct: extracellular domain; also called hEphA3-SEAP-His
T2 sequence (looked up): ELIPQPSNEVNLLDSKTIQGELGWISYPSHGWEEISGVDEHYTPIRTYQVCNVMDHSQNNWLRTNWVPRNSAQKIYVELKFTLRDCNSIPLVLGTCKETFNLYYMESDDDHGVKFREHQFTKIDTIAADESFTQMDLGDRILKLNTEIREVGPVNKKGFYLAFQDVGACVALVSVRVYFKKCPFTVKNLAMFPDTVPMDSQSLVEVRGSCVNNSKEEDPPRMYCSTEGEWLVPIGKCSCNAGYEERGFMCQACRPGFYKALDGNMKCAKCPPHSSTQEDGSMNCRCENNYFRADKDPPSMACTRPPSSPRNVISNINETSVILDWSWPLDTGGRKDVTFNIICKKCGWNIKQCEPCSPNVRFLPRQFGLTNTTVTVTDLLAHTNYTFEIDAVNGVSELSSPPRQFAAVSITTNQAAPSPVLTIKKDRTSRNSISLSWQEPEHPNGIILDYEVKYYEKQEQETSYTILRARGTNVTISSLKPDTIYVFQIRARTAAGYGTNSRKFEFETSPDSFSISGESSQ

T3: human EphB3 extracellular region-SEAP-His protein (human, UniProt P54753 34-559)
T3 construct: extracellular domain; also called hEphB3-SEAP-His
T3 sequence (looked up): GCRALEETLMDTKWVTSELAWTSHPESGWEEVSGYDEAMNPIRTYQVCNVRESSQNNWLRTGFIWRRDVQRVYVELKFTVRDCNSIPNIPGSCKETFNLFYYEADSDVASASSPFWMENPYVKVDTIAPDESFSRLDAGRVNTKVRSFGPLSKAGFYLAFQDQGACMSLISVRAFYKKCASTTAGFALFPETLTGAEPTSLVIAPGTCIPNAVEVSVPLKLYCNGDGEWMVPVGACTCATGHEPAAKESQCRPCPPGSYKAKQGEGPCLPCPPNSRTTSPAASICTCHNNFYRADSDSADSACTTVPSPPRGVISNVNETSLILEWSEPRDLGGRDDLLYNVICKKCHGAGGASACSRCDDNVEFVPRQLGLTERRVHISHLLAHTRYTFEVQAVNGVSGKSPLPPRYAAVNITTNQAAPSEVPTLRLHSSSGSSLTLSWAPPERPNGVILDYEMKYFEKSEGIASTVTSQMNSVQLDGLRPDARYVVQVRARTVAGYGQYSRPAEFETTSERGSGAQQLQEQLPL

T4: human EphB2 extracellular region-SEAP-His protein (human, UniProt P29323 19-543)
T4 construct: extracellular domain; also called hEphB2-SEAP-His
T4 sequence (looked up): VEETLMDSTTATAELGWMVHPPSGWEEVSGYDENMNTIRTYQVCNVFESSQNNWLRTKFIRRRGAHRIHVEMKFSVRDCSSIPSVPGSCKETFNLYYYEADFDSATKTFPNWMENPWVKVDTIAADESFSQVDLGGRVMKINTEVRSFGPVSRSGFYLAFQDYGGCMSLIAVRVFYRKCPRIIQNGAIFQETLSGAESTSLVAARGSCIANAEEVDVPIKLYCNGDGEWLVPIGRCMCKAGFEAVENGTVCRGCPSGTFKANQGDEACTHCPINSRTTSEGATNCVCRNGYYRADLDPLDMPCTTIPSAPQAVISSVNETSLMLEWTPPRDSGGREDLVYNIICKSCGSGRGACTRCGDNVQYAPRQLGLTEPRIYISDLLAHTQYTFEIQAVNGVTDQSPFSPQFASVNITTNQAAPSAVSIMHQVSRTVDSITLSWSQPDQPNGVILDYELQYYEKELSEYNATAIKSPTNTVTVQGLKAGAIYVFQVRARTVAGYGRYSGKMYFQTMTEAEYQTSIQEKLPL


What was measured:
Assay in all cases: ELISA
[1] = biological target: T1, human EphA1 extracellular …
[2] = biological target: T2, human EphA3 extracellular …
SEAP-His = SEAP-His (UniProt P05187 23-511)
Chain of SEAP-His (P05187 23-511): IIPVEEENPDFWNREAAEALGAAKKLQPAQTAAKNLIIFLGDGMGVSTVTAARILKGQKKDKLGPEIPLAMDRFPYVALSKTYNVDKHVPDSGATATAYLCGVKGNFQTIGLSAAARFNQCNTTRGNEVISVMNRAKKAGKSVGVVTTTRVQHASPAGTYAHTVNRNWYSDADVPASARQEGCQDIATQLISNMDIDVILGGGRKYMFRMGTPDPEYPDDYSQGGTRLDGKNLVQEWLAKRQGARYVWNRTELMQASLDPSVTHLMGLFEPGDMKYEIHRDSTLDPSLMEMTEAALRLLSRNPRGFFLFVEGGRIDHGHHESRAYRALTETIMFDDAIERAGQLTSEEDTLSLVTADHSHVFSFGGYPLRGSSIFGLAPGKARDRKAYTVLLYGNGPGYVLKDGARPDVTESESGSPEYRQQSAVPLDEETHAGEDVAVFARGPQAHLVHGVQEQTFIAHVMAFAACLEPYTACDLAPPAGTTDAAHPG

[3] = biological target: T5, human EphA5 extracellular region-SEAP-His protein (human, UniProt P54756 25-573)
T5 construct: extracellular domain; also called hEphA5-SEAP-His
T5 sequence (P54756 25-573): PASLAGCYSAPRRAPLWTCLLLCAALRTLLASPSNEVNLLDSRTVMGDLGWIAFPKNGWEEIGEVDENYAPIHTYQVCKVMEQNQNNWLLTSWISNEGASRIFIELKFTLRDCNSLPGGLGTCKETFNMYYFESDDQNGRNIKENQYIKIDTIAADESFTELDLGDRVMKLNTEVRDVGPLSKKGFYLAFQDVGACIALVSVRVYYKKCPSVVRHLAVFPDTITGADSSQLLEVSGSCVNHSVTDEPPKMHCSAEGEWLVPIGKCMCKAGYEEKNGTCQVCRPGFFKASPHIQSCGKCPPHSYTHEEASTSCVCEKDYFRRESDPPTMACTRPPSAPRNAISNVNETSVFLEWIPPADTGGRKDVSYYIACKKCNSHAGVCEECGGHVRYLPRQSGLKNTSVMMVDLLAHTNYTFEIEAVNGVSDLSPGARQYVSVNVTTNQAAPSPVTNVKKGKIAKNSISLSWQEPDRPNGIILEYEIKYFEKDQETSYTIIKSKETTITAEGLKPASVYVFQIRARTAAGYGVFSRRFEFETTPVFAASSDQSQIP

[4] = biological target: T3, human EphB3 extracellular …
[5] = biological target: T4, human EphB2 extracellular …

Binder	A450 as % of hEphA4-SEAP-His [1] [%]	A450 as % of hEphA4-SEAP-His [2] [%]	A450 as % of hEphA4-SEAP-His (SEAP-His) [%]	A450 as % of hEphA4-SEAP-His [3] [%]	A450 as % of hEphA4-SEAP-His [4] [%]	A450 as % of hEphA4-SEAP-His [5] [%]
humanized antibody No. 76 (antibody, human IgG1, kappa, human Ig kappa; also called L1-4/HA2) heavy: QVQLVQSGSELKKPGASVKVSCKASGYTFTDYSMHWVRQAPGQGLKWMGWINTETGEPTYAQGFTGRFVFSLDTSVSTAYLQISSLKAEDTAVYYCARIPLYYYGSRYWYFDVWGQGTTVTVSSASTKGPSVFPLAPSSKSTSGGTAALGCLVKDYFPEPVTVSWNSGALTSGVHTFPAVLQSSGLYSLSSVVTVPSSSLGTQTYICNVNHKPSNTKVDKRVEPKSCDKTHTCPPCPAPPAAAPSVFLFPPKPKDTLMISRTPEVTCVVVDVSHEDPEVQFNWYVDGVEVHNAKTKPREEQFNSTFRVVSVLTVVHQDWLNGKEYKCKVSNKGLPAPIEKTISKTKGQPREPQVYTLPPSREEMTKNQVSLTCLVKGFYPSDIAVEWESNGQPENNYKTTPPMLDSDGSFFLYSKLTVDKSRWQQGNVFSCSVMHEALHNHYTQKSLSLSPG light: DIQMTQSPSSLSASVGDRVTITCRASENIYRNLAWYQQKPGKAPKLLVYAATNLADGVPSRFSGSGSGTDYTLTISSLQPEDFATYYCQHFWGTPWTFGQGTKVEIKRTVAAPSVFIFPPSDEQLKSGTASVVCLLNNFYPREAKVQWKVDNALQSGNSQESVTEQDSKDSTYSLSSTLTLSKADYEKHKVYACEVTHQGLSSPVTKSFNRGEC	5.1	4.9	5.5	5.3	5	4.9
humanized antibody No. 67 (antibody, human IgG1, kappa, human Ig kappa; also called L1-4/HA4) heavy: QIQLVQSGSELKKPGASVKVSCKASGYTFTDYSMHWVRQAPGQGLKWMGWINTETGEPTYAQGFTGRFVFSLDTSVSTAYLQISSLKAEDTAVYYCARIPLYYYGSRYWYFDVWGQGTTVTVSSASTKGPSVFPLAPSSKSTSGGTAALGCLVKDYFPEPVTVSWNSGALTSGVHTFPAVLQSSGLYSLSSVVTVPSSSLGTQTYICNVNHKPSNTKVDKRVEPKSCDKTHTCPPCPAPPAAAPSVFLFPPKPKDTLMISRTPEVTCVVVDVSHEDPEVQFNWYVDGVEVHNAKTKPREEQFNSTFRVVSVLTVVHQDWLNGKEYKCKVSNKGLPAPIEKTISKTKGQPREPQVYTLPPSREEMTKNQVSLTCLVKGFYPSDIAVEWESNGQPENNYKTTPPMLDSDGSFFLYSKLTVDKSRWQQGNVFSCSVMHEALHNHYTQKSLSLSPG light: DIQMTQSPSSLSASVGDRVTITCRASENIYRNLAWYQQKPGKAPKLLVYAATNLADGVPSRFSGSGSGTDYTLTISSLQPEDFATYYCQHFWGTPWTFGQGTKVEIKRTVAAPSVFIFPPSDEQLKSGTASVVCLLNNFYPREAKVQWKVDNALQSGNSQESVTEQDSKDSTYSLSSTLTLSKADYEKHKVYACEVTHQGLSSPVTKSFNRGEC	4.6	4.8	5	4.8	4.9	4.7

Second part, the binder after the results:

A450 as % of hEphA4-SEAP-His [1] [%]	A450 as % of hEphA4-SEAP-His [2] [%]	A450 as % of hEphA4-SEAP-His (SEAP-His) [%]	A450 as % of hEphA4-SEAP-His [3] [%]	A450 as % of hEphA4-SEAP-His [4] [%]	A450 as % of hEphA4-SEAP-His [5] [%]	Binder
5.7	5.4	6.1	5.6	5.9	5.5	humanized antibody No. 69 (antibody, human IgG1, kappa, human Ig kappa; also called L1-4/HK4) heavy: QIQLVQSGSELKKPGASVKVSCKASGYTFTDYSMHWVRQAPGQGLKWMGWINTETGEPTYADDFKGRFVFSLDTSVSTAYLQISSLKAEDTAVYYCARIPLYYYGSRYWYFDVWGQGTTVTVSSASTKGPSVFPLAPSSKSTSGGTAALGCLVKDYFPEPVTVSWNSGALTSGVHTFPAVLQSSGLYSLSSVVTVPSSSLGTQTYICNVNHKPSNTKVDKRVEPKSCDKTHTCPPCPAPPAAAPSVFLFPPKPKDTLMISRTPEVTCVVVDVSHEDPEVQFNWYVDGVEVHNAKTKPREEQFNSTFRVVSVLTVVHQDWLNGKEYKCKVSNKGLPAPIEKTISKTKGQPREPQVYTLPPSREEMTKNQVSLTCLVKGFYPSDIAVEWESNGQPENNYKTTPPMLDSDGSFFLYSKLTVDKSRWQQGNVFSCSVMHEALHNHYTQKSLSLSPG light: DIQMTQSPSSLSASVGDRVTITCRASENIYRNLAWYQQKPGKAPKLLVYAATNLADGVPSRFSGSGSGTDYTLTISSLQPEDFATYYCQHFWGTPWTFGQGTKVEIKRTVAAPSVFIFPPSDEQLKSGTASVVCLLNNFYPREAKVQWKVDNALQSGNSQESVTEQDSKDSTYSLSSTLTLSKADYEKHKVYACEVTHQGLSSPVTKSFNRGEC
4.7	4.8	4.4	4.7	4.7	4.5	humanized antibody No. 75 (antibody, human IgG1, kappa, constant region: human IgG1 CH1 and hinge, human IgG2 CH2 and CH3 with V234A, G237A, no C-terminal Lys; human Ig kappa; also called L1-4/HA1) heavy: QVQLVQSGSELKKPGASVKVSCKASGYTFTDYSMHWVRQAPGQGLEWMGWINTETGEPTYAQGFTGRFVFSLDTSVSTAYLQISSLKAEDTAVYYCARIPLYYYGSRYWYFDVWGQGTTVTVSSASTKGPSVFPLAPSSKSTSGGTAALGCLVKDYFPEPVTVSWNSGALTSGVHTFPAVLQSSGLYSLSSVVTVPSSSLGTQTYICNVNHKPSNTKVDKRVEPKSCDKTHTCPPCPAPPAAAPSVFLFPPKPKDTLMISRTPEVTCVVVDVSHEDPEVQFNWYVDGVEVHNAKTKPREEQFNSTFRVVSVLTVVHQDWLNGKEYKCKVSNKGLPAPIEKTISKTKGQPREPQVYTLPPSREEMTKNQVSLTCLVKGFYPSDIAVEWESNGQPENNYKTTPPMLDSDGSFFLYSKLTVDKSRWQQGNVFSCSVMHEALHNHYTQKSLSLSPG light: DIQMTQSPSSLSASVGDRVTITCRASENIYRNLAWYQQKPGKAPKLLVYAATNLADGVPSRFSGSGSGTDYTLTISSLQPEDFATYYCQHFWGTPWTFGQGTKVEIKRTVAAPSVFIFPPSDEQLKSGTASVVCLLNNFYPREAKVQWKVDNALQSGNSQESVTEQDSKDSTYSLSSTLTLSKADYEKHKVYACEVTHQGLSSPVTKSFNRGEC
